The values below come from patent US20110135634A1, “METHODS OF INHIBITING INFECTION BY DIVERSE SUBTYPES OF DRUG-RESISTANT HIV-1” (priority 2007, published 2011).

In data set [1] the test system is reporter viruses pseudotyped with HIV-1SF162 envelope (U87-CD4-CCR5 cells). The data set can be described thus: HIV-1 pseudovirus assay, SF162 envelope. Type of data set: cell-based. From the text: A self-inactivating (SIN) vector was derived from the pNL4-3ΔEnv-luciferase vector (Dragic et al. 1996) by deleting 507 basepairs in the U3 region of the 3′ long terminal repeat (LTR) so as to remove the TATA box and transcription factor binding sites. The human cytomegalovirus promoter was inserted upstream of the luciferase (luc) gene to enable expression of luciferase following integration.
Reporter viruses pseudotyped with HIV-1JR-FL or HIV-1SF162 envelopes were generated by cotransfection of 293T cells with the SIN vector and the appropriate pcDNA env-expressing vector as previously described (Dragic et al. 1996). […] Cultures were incubated for 72 h at 37° C. in DMEM containing 10% fetal bovine serum, […] puromycin, 0.3 mg/mL geneticin, antibiotics, and 0.5% DMSO. Luciferase activity (relative light units or RLU) was measured using. BrightGlo reagent (Promega, Madison, Wis.) according to the manufacturer's instructions.
Experimental design and data analysis were based on the combination index (CI) method (Chou et al. 1991; Chou et al. 1984). […] The mutually exclusive CI formula was used for combinations of CCR5 inhibitors, while the mutually non-exclusive formula was utilized for combinations of inhibitors to distinct targets (Chou et al. 1991). Each test was conducted 4-12 times. Synergy, additivity and antagonism are indicated by CI<1, CI=1 and CI>1, respectively.

The test system of data set [2] is CCR5 lymphocytes. Type of data set: in vivo, human. The procedure:
Whole blood specimens were combined separately with the indicated phycoerythrin-labeled anti-CCR5 antibodies or with appropriate isotype-control antibodies. Erythocytes were lysed and leukocytes were stabilized using the ImmunoPrep Reagent System (Beckman Coulter), and the cells were analyzed on a TQ Prep™ flow cytometry workstation (Beckman Coulter). Data were expressed as the percent of CCR5 cells relative to all cells gated in the analysis.
For up to 60 days post-treatment, at the times indicated in FIG. 6, blood was collected and analyzed for CCR5 lymphocyte levels.
Background binding of isotype control antibodies was unchanged.

The conditions of data set [3]: human, in vivo. The procedure: Individuals were treated in sequential, dose-rising cohorts of 5 subjects (4 active and 1 placebo) each and evaluated for up to 120 days post-treatment. […] Safety assessments consisted of monitoring the following: vital signs (blood pressure, pulse, temperature, etc; hematology (hemoglobin, hematocrit, leukocytes, platelets, etc.); serum chemistries (AST/ALT, alkaline phosphatase, BUN, creatinine, etc.); urinalysis (pH, specific gravity, protein, glucose, leukocytes, etc.); and ECGs (12-lead).

A short description of data set [4]: Phase 1b clinical trial: safety, PK, immunogenicity, tropism, susceptibility. The data set is classed as in vivo, human. The following applies: HIV-infected subjects. From the text:
All patients were screened prior to the study for the presence of virus that utilizes only CCR5 as the entry coreceptor, i.e., CCR5-tropic virus.

Setting [5] is: SF162, labelled 1st inhibitor with 2nd inhibitor PRO 140 (equimolar; 1:10 PRO 140 to nevirapine or zidovudine).

Read-outs that look alike come from different tables or passages of the source.

B1: PRO 140: humanized IgG4,κ anti-CCR5 mAb being developed for HIV-1 therapy (antibody, chains of the INN, looked up, V domains shown)
VH: EVQLVESGGGLVKPGGSLRLSCAASGYTFSNYWIGWVRQAPGKGLEWIGDIYPGGNYIRNNEKFKDKTTLSADTSKNTAYLQMNSLKTEDTAVYYCGSSFGSNYVFAWFTYWGQGTLVTVSS
VL: DIVMTQSPLSLPVTPGEPASISCRSSQRLLSSYGHTYLHWYLQKPGQSPQLLIYEVSNRFSGVPDRFSGSGSGTDFTLKISRVEAEDVGVYYCSQSTHVPLTFGQGTKVEIK
A word on the IC50: it is the concentration at which inhibition is half-maximal. Broadly, the IC90 is the point of the concentration-response curve where the effect stands at 90%. With B1, in data set [1] (HIV-1 envelope SF162, 1st inhibitor alone, read-out: IC50), the IC50 was determined as 1.3 nM. In data set [1] (HIV-1 envelope SF162, 1st inhibitor alone, read-out: IC90), the IC90 was found to be 20 nM. For the same molecule, in data set [1] (setting [5]), the CI50 was determined as 1.0 ± 0.27 and the CI90 stood at 0.86 ± 0.33. In data set [2] (in vivo, 2 mg/kg), the “overall number of CCR5 lymphocytes as measured by CTC5 binding” value was “no decrease”. Also, in data set [2] (single 2 mg/kg dose), the “time CCR5 lymphocytes effectively coated without cellular depletion” value is “two weeks” and the “time cells remain partially coated” value is reported as more than 4 weeks. The “time cells remain partially coated” value in data set [2] (single 5 mg/kg dose) is on record as more than 60 days. Further, in data set [3], the dose-limiting toxicity entry is recorded as “no dose-limiting toxicity”. For the same molecule, the “change in plasma RANTES (CCL5) chemokine levels” value in data set [4] is “No change”. Besides, in data set [4] (0.5-5.0 mg/kg), the dose-limiting toxicity result is on record as “No dose-limiting toxicity” and the “treatment related SAEs” value is listed as “No treatment related SAEs”. The tolerability entry in data set [4] (all study groups) is given as “well-tolerated”.
